Biological target: Factor X, P00742
Sequence (P00742 whole entry, looked up): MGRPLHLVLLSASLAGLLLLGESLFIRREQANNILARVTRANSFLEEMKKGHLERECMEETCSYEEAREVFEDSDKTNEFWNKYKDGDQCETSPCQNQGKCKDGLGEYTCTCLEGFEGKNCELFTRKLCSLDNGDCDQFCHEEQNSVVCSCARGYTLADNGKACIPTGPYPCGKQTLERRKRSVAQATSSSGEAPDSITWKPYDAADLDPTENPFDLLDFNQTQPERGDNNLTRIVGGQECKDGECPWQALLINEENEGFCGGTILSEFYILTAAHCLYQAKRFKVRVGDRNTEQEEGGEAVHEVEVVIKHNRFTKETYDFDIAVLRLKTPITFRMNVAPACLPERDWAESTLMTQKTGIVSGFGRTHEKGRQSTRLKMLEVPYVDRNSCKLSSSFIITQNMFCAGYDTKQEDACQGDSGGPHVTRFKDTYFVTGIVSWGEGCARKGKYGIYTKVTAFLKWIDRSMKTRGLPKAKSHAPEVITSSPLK

B1: Desialylated wild-type Factor VII (dWT VIIa) (protein)
chain 1: ANAFLEELRPGSLERECKEEQCSFEEAREIFKDAERTKLFWISYSDGDQCASSPCQNGGSCKDQLQSYICFCLPAFEGRNCETHKDDQLICVNENGGCEQYCSDHTGTKRSCRCHEGYSLLADGVSCTPTVEYPCGKIPILEKRNASKPQGR
chain 2: IVGGKVCPKGECPWQVLLLVNGAQLCGGTLINTIWVVSAAHCFDKIKNWRNLIAVLGEHDLSEHDGDEQSRRVAQVIIPSTYVPGTTNHDIALLRLHQPVVLTDHVVPLCLPERTFSERTLAFVRFSLVSGWGQLLDRGATALELMVLNVPRLMTQDCLQQSRKVGDSPNITEYMFCAGYSDGSKDSCKGDSGGPHATHYRGTWYLTGIVSWGQGCATVGHFGVYTRVSQYIEWLQKLMRSEPRPGVLLRAPFP
Q: Which “activation of Factor X (Michaelis Menten kinetics; Factor X titrated in the presence of sTF-Factor VII complexes, 0.5 nM Factor VII, 125 nM sTF), relative to wild-type Factor VII (F7)” value does the source give for B1 here?
A: The value was “approximately 2-fold”.
